Measured values published in publication PMC2783756 (Biochemistry, 2009).

Assays:
[1] = system: DNA; settings: previously observed for N-terminal construct; ref [6]; cited from earlier work
[2] = system: NKX3.1 homeodomain; assay: CD thermal unfolding of NKX3.1 constructs; type: physicochemical; settings: with and without His tag sequence; within error (±1 °C)
[3] = system: medium-chain acyl-CoA dehydrogenase; settings: activity drops significantly for changes in temperature as small as 3 °C; ref [21]; cited from earlier work

B1: 1–184: NKX3.1 (1–184) construct, recombinant with N-terminal hexahistidine sequence (protein, UniProt Q99801 1-184, looked up, fragment)
chain: MLRVPEPRPGEAKAEGAAPPTPSKPLTSFLIQDILRDGAQRQGGRTSSQRQRDPEPEPEPEPEGGRSRAGAQNDQLSTGPRAAPEEAETLAETEPERHLGSYLLDSENTSGALPRLPQTPKQPQKRSRAAFSHTQVIELERKFSHQKYLSAPERAHLAKNLKLTETQVKIWFQNRRYKTKRKQL
modifications: N-terminal His6 tag
DNA binding [1]: weaker DNA binding

B2: 114–184: NKX3.1 homeodomain construct, recombinant with N-terminal hexahistidine sequence (protein, UniProt Q99801 114-184, looked up, fragment)
chain: PRLPQTPKQPQKRSRAAFSHTQVIELERKFSHQKYLSAPERAHLAKNLKLTETQVKIWFQNRRYKTKRKQL
modifications: N-terminal His6 tag
Effect of His tag on unfolding transition temperature [2]: the same unfolding transition temperature within error

B3: Y42H allele of human medium-chain acyl-CoA dehydrogenase: Y42H allele of human medium-chain acyl-CoA dehydrogenase (protein, UniProt P11310 26-421, looked up, variant Y42H)
Medium-chain specific …: KANRQREPGLGFSFEFTEQQKEFQATARKFAREEIIPVAAEHDKTGEYPVPLIRRAWELGLMNTHIPENCGGLGLGTFDACLISEELAYGCTGVQTAIEGNSLGQMPIIIAGNDQQKKKYLGRMTEEPLMCAYCVTEPGAGSDVAGIKTKAEKKGDEYIINGQKMWITNGGKANWYFLLARSDPDPKAPANKAFTGFIVEADTPGIQIGRKELNMGQRCSDTRGIVFEDVKVPKENVLIGDGAGFKVAMGAFDKTRPVVAAGAVGLAQRALDEATKYALERKTFGKLLVEHQAISFMLAEMAMKVELARMSYQRAAWEVDSGRRNTYYASIAKAFAGDIANQLATDAVQILGGNGFNTEYPVEKLMRDAKIYQIYEGTSQIQRLIVAREHIDKYKN
Thermal stability and activity [3]: lower thermal stability
